In the experiment the target is elastase (porcine pancreas, Sigma Aldrich) (porcine) (UniProt P00772). Briefly: cell-based or functional assay.
Sequence of elastase (porcine pancreas, Sigma Aldrich) (porcine) (P00772 27-266): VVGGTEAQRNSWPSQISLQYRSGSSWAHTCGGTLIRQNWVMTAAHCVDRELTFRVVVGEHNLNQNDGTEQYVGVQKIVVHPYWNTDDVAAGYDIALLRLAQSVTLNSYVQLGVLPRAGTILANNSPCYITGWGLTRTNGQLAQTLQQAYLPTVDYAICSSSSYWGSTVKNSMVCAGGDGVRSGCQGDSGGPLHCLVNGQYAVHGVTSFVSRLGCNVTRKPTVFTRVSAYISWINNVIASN

Sequence of alpha-1-antitrypsin enriched native human HDL (P01009 25-418): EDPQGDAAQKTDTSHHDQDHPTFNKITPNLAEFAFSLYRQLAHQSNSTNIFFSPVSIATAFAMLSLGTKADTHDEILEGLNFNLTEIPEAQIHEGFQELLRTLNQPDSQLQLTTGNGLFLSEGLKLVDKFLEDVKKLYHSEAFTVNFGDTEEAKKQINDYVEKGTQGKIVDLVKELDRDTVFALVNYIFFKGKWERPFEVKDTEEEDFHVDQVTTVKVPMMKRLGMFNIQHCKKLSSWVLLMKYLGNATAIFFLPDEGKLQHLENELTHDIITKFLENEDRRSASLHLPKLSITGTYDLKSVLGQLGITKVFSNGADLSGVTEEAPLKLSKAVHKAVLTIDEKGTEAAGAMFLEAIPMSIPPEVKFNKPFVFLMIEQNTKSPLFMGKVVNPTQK

As to “alpha-1-antitrypsin enriched native human HDL (from UniProt P01009 25-418)”, the elastase induced TNF-α production by J774 macrophages, change compared to PBS pretreatment is -97%.

The values above are taken from patent US20170319643A1.
